The term Kd denotes the free concentration of one partner at which half of the binding sites on the other are occupied at equilibrium, for simple one-to-one binding.

Our source for the Kd values is paper PMC8006934.

The target in test [1] is FcγRIIb, human, C-terminally biotinylated (human) (UniProt P31994). As to the kind of experiment: SPR. Particulars: natural protein; remark: other sources report otherwise.
Test [2] concerns the target FcγRIa, FcγRIIa/b, and FcγRIIIa. Nature of the test: SPR; IBIS MX96 array; C-terminally biotinylated FcRs spotted at different densities (100–1 nM) on one SensEye G-streptavidin sensor, blocked with biotinylated BSA; CRP injected in 2-fold dilutions from 0.98 to 2,000 nM in 20 mM Tris, 280 mM NaCl, 5 mM CaCl2, pH 8.0; KD by equilibrium fitting to Rmax = 500. In general terms: Surface plasmon resonance follows binding to a sensor surface in real time, without labels.

Sequence of FcγRIIb, human, C-terminally biotinylated (human) (P31994 43-217): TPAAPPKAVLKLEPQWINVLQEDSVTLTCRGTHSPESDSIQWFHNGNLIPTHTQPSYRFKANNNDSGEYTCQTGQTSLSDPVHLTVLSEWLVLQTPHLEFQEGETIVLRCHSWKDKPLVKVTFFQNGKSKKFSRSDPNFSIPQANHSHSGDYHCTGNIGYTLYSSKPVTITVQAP

The substance “C-reactive protein (native CRP from human fluid) (from UniProt P02741 19-224)” came in with a Kd in test [1] of 4.2 µM.

“C-reactive protein (native CRP from human fluid) (from UniProt P02741 19-224) (natural protein)”: the Kd in test [2] fell in the range of 3.4 to 4.9 µM.
